Experimental data from US20220380450A1 (AstraZeneca / MedImmune, published 2022).
One block for each binder: values may come before it.

Columns and labels:
[1] = target: T1, RAGE-Fc (R&D Systems #1145-RG) (UniProt Q15109 23-344, limits assumed); experiment: ELISA: biotinylated oxIL-33 on streptavidin plate, RAGE-Fc at 10 µg/mL, anti-human IgG HRP
T1 construct: Bought reagent; not shown: Fc part of the bought fusion (detected with anti-human IgG HRP)
Description: (§1) Plates were washed 3× with 200 μl PBS-T (PBS+1% (v/v) Tween-20) and blocked with 300 μl/well blocking buffer (PBS with 1% BSA (Sigma, A9576)) for 1 hour. […] Plates were washed with 200 μl PBS-T three times. […] Plates were washed 3× with PBS-T and developed with TMB, 100 μl/well (Sigma, T0440). The reaction was quenched with 50 μl/well 0.1M H₂SO₄. Absorbance was read at 450 nm on the Cytation Gen5 or similar equipment.

[2] = target: T1, RAGE-Fc (R&D Systems #1145-RG); experiment: ELISA, FIG. 7A: biotinylated HMGB1 on streptavidin plate, RAGE-Fc
Description: as §1

[3] = target: T2, EGFR-Fc (R&D Systems #344-ER-050) (UniProt P00533 25-645); experiment: ELISA: biotinylated HMGB1 on streptavidin plate, EGFR-Fc with untagged RAGE (Sino Biological 11629-HCCH) at 10 µg/mL, anti-human IgG HRP
T2 construct: Bought reagent; not shown: Fc part of the bought fusion (detected with anti-human IgG HRP)
Description: as §1

[4] = target: T3, epidermal growth factor receptor (EGFR), endogenous in NHBE, DHBE and A549 cells (human, UniProt P00533 25-1210); experiment: anti-EGFR (AF231) immunoprecipitation from NHBE lysate, LC-MS; cells stimulated with 30 ng/ml reduced IL-33-01 for 10 min; IL-33 not detected in complex with EGFR
T3 construct: whole, on cells; Endogenous receptor; also called EGF Receptor

T1 sequence (Q15109 23-344 limits assumed): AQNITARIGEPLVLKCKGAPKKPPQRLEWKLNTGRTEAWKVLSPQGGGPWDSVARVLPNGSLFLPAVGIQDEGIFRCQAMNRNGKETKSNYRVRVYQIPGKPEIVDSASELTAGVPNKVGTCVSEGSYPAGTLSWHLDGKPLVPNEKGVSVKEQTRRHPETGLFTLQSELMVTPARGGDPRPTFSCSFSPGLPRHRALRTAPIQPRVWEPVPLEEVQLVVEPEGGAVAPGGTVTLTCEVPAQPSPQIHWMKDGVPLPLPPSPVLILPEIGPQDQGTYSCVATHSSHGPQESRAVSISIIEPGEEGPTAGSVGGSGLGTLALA

binding result [1]: binds
B1: Avitag_IL-33-01 (oxidised IL-33) (ligand)
chain: MHHHHHHHHHHAAGLNDIFEAQKIEWHEAAIEGRSITGISPITEYLASLSTYNDQSITFALEDESYEIYVEDLKKDEKKDKVLLSYYESQHPSNESGDGVDGKMLMVTLSPTKDFWLHANNKEHSVELHKCEKPLPDQAFFVLHNMHSNCVSFECKTDPGVFIGVKDNHLALIKVDSSENLCTENILFKLSET
modifications: biotinylated on the Avitag with BirA; oxidised (disulphide bonded) form
notes: also called oxIL-33; biotinylated oxidised N-terminal tagged His10/Avitag IL33-01

binding result [2]: binds
binding result [3]: no binding (tested: 10 µg/mL)
B2: HMGB1 (R&D systems 1690-HMB-050), biotinylated (ligand, UniProt P09429 1-215, looked up)
chain: MGKGDPKKPRGKMSSYAFFVQTCREEHKKKHPDASVNFSEFSKKCSERWKTMSAKEKGKFEDMAKADKARYEREMKTYIPPKGETKKKFKDPNAPKRPPSAFFLFCSEYRPKIKGEHPGLSIGDVAKKLGEMWNNTAADDKQPYEKKAAKLKEKYEKDIAAYRAKGKPDAAKKGVVKAEKSKKKKEEEEDEEDEEDEEEEEDEEDEDEEEDDDDE
modifications: biotinylated via free amines (EZ link Sulfo-NHS-LC-Biotin)
notes: Immobilised on streptavidin plates in the ELISA of section 10; called a known RAGE ligand / bona fide RAGE agonist

binding result [4]: no binding
B3: Untagged IL33-01 (ligand)
chain: SITGISPITEYLASLSTYNDQSITFALEDESYEIYVEDLKKDEKKDKVLLSYYESQHPSNESGDGVDGKMLMVTLSPTKDFWLHANNKEHSVELHKCEKPLPDQAFFVLHNMHSNCVSFECKTDPGVFIGVKDNHLALIKVDSSENLCTENILFKLSET
notes: Reduced wild type form; also called reduced IL-33; WT IL-33
